Test results as given in the DeepSol protein solubility set.

Test: soluble on expression in E. coli; label from the status in PepcDB or PDB records

Sequence	soluble on expression in E. coli
MAHHHHHHMLAPTVTREACQPIINAFRCAAEKGQTQTDVDAESWGREVTRINAEAQKAWSEQRKPFIPAMYLRRRDPAAEEALRLLRVTSKAFELNLRFREIEKLDEMHAKLWALLSADKTRLTITIIEYMEILKKFKAWQEERFEGTPKASPQREASVQSSQECLDDTTPLGSVVYLASVMQPRPSLQLYLSCPRSPAGGVEVVHIYQRFAKQVSLVKCEAELIMWDTNNDGCLTEDEMESYVRDLVPRIEALRDITEDILPFYCCTVSRRIFWVLDPGSRGAIRIDMLLQNPVMDEWVSLQLMREDQPRNWFSAAITSHLYDKFLLLDTRNRGTLNADDMKRYKKGLPTVMDDGLPPGVGPLSSLFIDRFFETNVMMANSELDFRKFVDFVVAVEFLPSCQRPLFFWNILDIEGCGYLKPVHVNYFFRETHTKLVAAGLEVPSRETVVQEAFDLISTAEPLCISREEFINAPQAGLFVALLVDCLSFWTYENREQR	not soluble
MNTPNSSCTILFENLYDNDLALKLFNNRTIVDNILRNVKGDINNRLELRLVNKSFNLAAIHVIRKENRTVVFHKFNRCDRLHKISPCPDCSVHLNSVKLNKKNIFQYARFLKQTMKIMVIKIRIEDSKRVCCMITDVHQVIHKSLIGSDYDKVEEFVGIDQISFSTCIPCEKIAANCKVFGPVQNDMFNAILRLKHHYDVLQVKDMRLYKLMILNKEDPTVVEDFINSNITCSKLTIFLMYMYEKEAFGYSLPREFLDLLIKKWNVKTVEIVPRQDQPIPYYFHCNTDFIVPKAKFYVDYWTQPRSKYTLDGVEIDLQLTKVVEQQIKNRKSLFDNFIANARRIFPSNKITVRFSKEVCQEMMSQGNVEDFISGIILMTQKDAQPNSHISLKLYPEEVDAPLIDSFLRENFEKKFDSWNLETVSDSSANLPAEKCYQFFNQSTNCKIIFYICC	not soluble
MAVSQGVSLKEDLKDLVRKAEEIGRELSGKLKTNQLRKFHGHLTKIWSNYIYKKKDYRDNPEKFNEEILNELHFMKIFLAYQVGRDIEGISELKEILEPLIDEIKTPDEFEKFKKFYDAILAYHKFHSESEKSNRRTARR	not soluble
MSLNDNNTILGFDVNLICDFFLNTERQGPGSPEVTLKALSFIDNLTNKSLIADLGCGTGGQTMILAQHVPGKITGIDFFPGFIERFNKNAEKLNLQNRVKGIVGSMDDLSFEKDSLDLIWSEGAIYNIGFERGLKEWRNYLKPGGYLAVSESVWFTDQRPAEIHDFWMSAYTEIDTVPNKVAQIQKAGYIPVATFILPENCWIEHYFAPQAKAEEIFRRKHAGSRIVEELITSNHHEAELYSKYKAYYGYAFFICKKGFSLREGHHHHHH	soluble
MTAINFNSIYTTYYRRAFLFTLSYVHNDLVAEDIVSEAIIYLWELSKKQEIPSIEAVLITYIRSKSLNYLKHLQVQENVYQNLTDKGQRELEIRISTLEACDPKEVMSEELRSKVKTLLAGMPEKTRIAFISDRLDGKSHKEIAEELGISVKGVEYHISKAVKLLRDNLKEYAPFLIFFI	not soluble
MGSDKIHHHHHHMAVGKNNNKMGKKGGKKKAVDPFSRKEWYDIKAPNMFNTRQVGKTLINRTQGTKIASEGLKGRVFEVSLGDLNNSEADFRKFKLIAEDVQGKNVLTNFHAMSMTHDKLCSIVKKWHTLIEANTAVKTTDGYTLRVFVIAFTKKSVNQVKKTSYTKTSKIRKIRSEMIGCIEKEVTGCDLKEVVSKLIPDSIGKDIEKTCSKLYPLQEVYIRKVKIIKRPKVDLGRLHDLHGDSITVGADGEKVDRPDDYEPPVQQEV	not soluble
PSGTIVGLYTHTDFAKKLSVDIELNYISMGSLFTMNKDTPEQRDYKVSLGYISLPVNLNYCVYKHIHVQVGIQTLALLTAVTEQKYQNVVTKGKNINDFHAIDAGPTIGCYYQFEKGLQLGVRYYRGIQNVVKENMVLYNTGIQFLLTYQF	not soluble
MSLISEVVVTTRKNNRDNKAPIGVYFKDKKVIMHLFSGSHTYENLLTEDYFSVNVVPPIEIAKAVLDDEDDYLYYNDIPYLKSSYYAIFYKVIERKFVDREDKFGKNRLMILEGEEIKRIYLNNIPKPYNRADGLLVEIAVIYSRLANKNIKINEDDKKEMINDIRKYFSIIKKVGGREHKQLAEIMLRNLNLLEGHHHHHH	soluble
MAYHADSADLETKEILTWEGFGIANRELAQQIVDSNYTPDIIVAVARGGLVPAGALSYSMGIKLSDAINVEFYTDVNETLPDPVLLEPLLDTNSIRGKKVLVVDDVADSGRTLDLVLKLLENHGAEVRSAVIYAKSRSIVAPNYIWKRTDEWIVFPWSAEPPVTKA	not soluble
MSNYEKVYIGTYTNGESRGIYSFNIISDSRKTTAPILSCEIENPTYLTFNMNNKTAYSVIKSGNLGGAASFYVDDRNNHLELLNCKFGYENPPERFSGKQPCYVSLDKTNSYLFSVNYHTSRVDVFPIRNDGSIDTVSSFVIHEGFGPNKERQETSHVHCAVTTPLNDFLCVVDLGTDKIVLYRFDDGILCRFNEFKLKPGCGPRHIIFHPNGKIAYIATELSSEVIVLKYSPLDGSFEELQYVSCLPTDYTGKNGSAAIHISRNSNYLYVSNRGHNSISCFHVDNSTGLLTLNSNTSTYGLSPRDFDLSSSGNLLIAANQDSSNLTIFSVDQVSGNLSKITSDIYVPNPVCVKFYHDKLEHHHHHH	not soluble
SHMAGHQIVHVRGDSETDLEALFNAVMNPKTANVPQTVPMRLRKLPDSFFKPPEPKSHSRQASTDAGTAGALTPQHVRAHSSPASLQLGAVSPGTLTPTGVVSGPAATPTAQHLRQSSFEIPDDV	soluble
MSLVKIVDVAKAANVSPAVVSRILSNDSKLVVREETRARVQQAIEALGYTPNLQARGLRLSRSNTLAMIVPELNSPVFPVIIQGAQRAAWERGYSLLVGGMGGEEEDPKVAGRLLRSNRIDGLLVTTGRHEAQMLQELATLNAPFVLVNRYLDDQHPYVELDERGAAAAITRHFIELGHRRIAFLGGLQRRVGERRVAGYADALAEAGLPWVPQLVVDAGYYKPGGEDGLRQLLALDEPPTAVVATNEIVAAGAMAAAHRQGVRIPRDLSIASFSDGIVAELLSPALTAVRFPLERMGYLATAMLVDIVEGRGAPQAGLCLPHESVVVRDSTARPPGRKARAATREGHHHHHH	not soluble
NSNFINIGERTNVAGSRKFARLIREKNYEEALTIARHQVENGAQIIDINFDDALLDARSEMETFLRLIASEPEISKVPVMIDSSNFEVLKVGLKSIQGKAIVNSISLKVGEEKFIEEAKFIKNFGAGVVVMAFDEEGQAATYERKIEICKRAYTILTEKVEFPPENIIFDPNILSIATGIEEHDNYAVNYIKAVKWIKENLPYAKVSGGVSNLSFSFRGNDAIRRAMHSVFLYHAINAGMDMGIVNPAMIDLYDDIDKDLLEKVENVVLNKSSNASESLLEFAQTYKKTTETLEKH	not soluble
MGHHHHHHSHMGNCQAVNAAVLVLQHPGGIIDRYYSSVSVTEVMAMYPGHYVSLIIPLSEEEEKNIPATEKGDDKKQRKAVRFTRVQLLRPTENLVLGHAYRLITSQEVMKVLREKKSAKTKKHQIEKTTTAKKFSDKKVPEKKQGKQFRVIRNSTSLLKSKTWRPSLQSISEATS	soluble
VRLLESGGGLVQPGGSLKLSCAASGFDYSRYWMSWVRQAPGKGLKWIGEINPVSSTINYTPSLKDKFIISRDNAKDTLYLQISKVRSEDTALYYCARLYYGYGYWYFDVWGAGTTVTVSSAKTTPPSVYPLAPGSAAAAASMVTLGCLVKGYFPEPVTVTWNSGSLAAGVHTFPAVLQAALYTLSSSVTVPSSSWPSETVTCNVAHPASSTKVDKKIVPRA	soluble
MHCDLPCGVYDPAQARIEAESVKAVQEKMAGNDDPHFQTRATVIKEQRAELAKHHVSVLWSDYFKPPHFEKYPELHQLVNDTLKAMSAAKGSKDPATGQKALDYIAQIDKIFWETKKA	soluble
